Here are results for one molecule from PMC8790125.

In this experiment the target is Rae1–Nup98_(GLEBS) complex, P78406. Put plainly: ITC.

B1: SARS-CoV-1 Orf6CTT (22-mer peptide, residues 42–63 of SARS-CoV-1 Orf6) (peptide)
chain: KPLTKKNYSELDDEEPMELDYP
modifications: not checked
Regarding B1, the Kd is 278 nM and the stoichiometry N came to 1.
